Measurements taken from the DeepSol protein solubility set.

Experiment: soluble on expression in E. coli; label from the status in PepcDB or PDB records

Row | Sequence | soluble on expression in E. coli
1 | AHHHHHHGSRIVVIGSGTAGSNFALFMRKLDRKAEITVIGKEETMQYSPCALPHVISGVIEKPEDVIVFPNEFYEKQRIKLLLNTEAKKIDRERKVVVTDKGEIPYDKLVIATGSKAFVPPIKGVENEGVFTLKSLEDVRKIKEFIKKRNPKNAVVIGAGLIGLEGAEAFAKLGMKVTVVELLEHLLPTMLDKDIAKIVEENMRKYGVDFKFGVGVDEIIGDPVEKVKVGEEEIDADIVLVATGVRANVELAKEAGLEVNRGIVVNEYLQTSDPDIYAIGDCAEVIDAVTGKRTLSQLGTSAVRMAKVAAENIAGRNVKFRPVFNTAITEIFDLEIGAFGITEERAKKEEIEVVVGKFRGSTKPEYYPGGKPIVVKLIFRKEDRRLIGAQIVGGERVWGRIMTLSALAQKGATVEDVVYLETAYAPPISPTIDPITIAAEMAMRKL | soluble
2 | AIAGIQAEQSPQNYFEGTVSQPSSRFSTTHKGLSGGYNLGLLVKMELQHSFIGKDNGISYLETKLSGFHHLPVIP | soluble
3 | AIANGTELRETLEDLIKEVVQASREALDTQGELNERNEAALRTLEAQWRQRLIEELHEQGSLRVVLCRTDLLVPGSGATGTTTTNRTDPLRYVYETLRQRDPRERRRSLPPERSSQSSELEDTGTDSGEALSSGDDDDEISQVAGQPEPETANYVLSQYERVLAPSTNKQRIWRVFLRDAMVHINGQDLLLNQLQCQFDW | soluble
4 | AIAVIVSRCGTGGSVTEHANEVVMKLEALQRPGGLPLSILLVLAGLTKRGASDLRHPIAEDRQSLSCATVQPSLQDV | soluble
5 | AIKDAATKLFDPYEILGISTSASDRDIKSAYRKLSVKFHPDKLAKGLTPDEKSVMEETYVQITKAYESLTDELVRQNYLKYGHPDGPQSTSHG | not soluble
6 | AKDFEWNFAATLSMDKNKVTRLYGDNDVVYNVDSDRNIQKEGNLFLGESRNTIYIWKTGGIAQEIDMDRLNKINWNGYNVNPGDLYPLDYDNNGQIDQNDRVVIGSTDPKFYGGFSTDFSWKGLSLNAVFSYSYGAKKLSPWYETLIGSTGSGVASTDLLDRWTPENTDAEFPRVLAGFDYNHYGASSMDFSVQKASFLRLSALTLAYTFPTKVINALKLTNLRVYATGSNLFCLTNYNGYDPETGDWYPPTRMYTFGLNLAF | not soluble
7 | AKDNYGKLPLIQSRDSDRTGQKRVKFVDLDEAKDSDKEVLFRARVHNTRQQGATLAFLTLRQQASLIQGLVKANKEGTISKNMVKWAGSLNLESIVLVRGIVKKVDEPIKSATVQNLEIHITKIYTISETPEALPILLEDASRSEAEAEAAGLPVVNLDTRLDYRVIDLRTVTNQAIFRIQAGVCELFREYLATKKFTEVHTPKLLGAPSEGGSSVFEVTYFKGKAYLAQSPQFNKQQLIVADFERVYEIGPVFRAENSNTHRHMTEFTGLDMEMAFEEHYHEVLDTLSELFVFIFSELPKRFAHEIELVRKQYPVEEFKLPKDGKMVRLTYKEGIEMLRAAGKEIGDFEDLSTENEKFLGKLVRDKYDTDFYILDKFPLEIRPFYTMPDPANPKYSNSYDFFMRGEEILSGAQRIHDHALLQERMKAHGLSPEDPGLKDYCDGFSYGCPPHAGGGIGLERVVMFYLDLKNIRRASLFPRDPKRLRP | soluble
8 | AKDWFVAVFANMAHNENKITKISDSLKEYNKRVQEKYAKYDSGKGDSKYSETYLQYVEGGSLTSIFGVRSLGINPADGKEIYLRPDGTITYDWNAADQVVIGNEEPKLQGTFGFNLRWKQFSLYSTFMYEFGGQRYNSTLVSKVENAHIQSSNVDRRVLTGRWQKPGDCTPYGRLQTDGVVAVTRPTSRFIQDYNVLTFNSLTLGYDFNAEWLKKARIGLLRVELSGNDLFRVATVRAERGLDYPYSRSFAASVKMSF | not soluble
9 | AKFSAIITDKVGLHARPASVLAKEASKFSSNITIIANEKQGNLKSIMNVMAMAIKTGTEITIQADGNDADQAIQAIKQTMIDTALIQG | soluble
10 | AKGRAGRSKRTEQDHYETDYTTGGESCDELEEDWIREYPPITSDQQRQLYKRNFDTGLQEYKSLQSVLDEINKELSRLDKELDDYREESEEYMAAADEYNRLKQVKGSADYKSKKNHCKQLKSKLSHIKKMVGDYDRQKT | soluble
11 | ALKQKIIGNGEKRVVTYAPTWREDDFISVGHYHFRWHFSLKKMMGLLPEDVMLLIRPHYLVTDRIDIKGFEDRVVIDSTTDMNEIYLITDLMVTDYSSVMFDFAILKRPMLFFAYDLEYYRDDLRGFYFDYYTELPGSIVTDETHLLAEIDQLLQNNFAELDPERFNKFAKRFVSWERGTAAQQVIEKINYRRDEK | not soluble
12 | ALRGTVTDFSGFDGEADAEVLEKAMEGLGTDEDSILNLLTARSNAQRQQIAEEFETLFGRDLVNDMKSELTGKFEKLIVALMKPSRLYDAYELKHALKGAGTDEKVLTEIIASRTPEELRAIKQAYEEEYGSNLEDDVVGDTSGYYQRMLVVLLQANRDPDTAIDDAQVELDAQALFQAGELKWGTDEEEFITILGTRSVSHLRRVFDKYMTISGFQIEETIDRETSGNLENLLLAVVKSIRSIPAYLAETLYYAMKGAGTDDHTLIRVIVSRSEIDLFNIRKEFRKNFATSLYSMIKGDTSGDYKKALLLLSGGEDD | soluble
13 | ALYNVDAGHRAVIFDRFRGVQDIVVGEGTHFLIPWVQKPIIFDCRSRPRNVPVITGSKDLQNVNITLRILFRPVASQLPRIFTSIGEDYDERVLPSITTEILKSVVARFDAGELITQRELVSRQVSDDLTERAATFGLILDDVSLTHLTFGKEFTEAVEAKQVAQQEAERARFVVEKAEQQKKAAIISAEGDSKAAELIANSLATAGDGLIELRKLEAAEDIAYQLSRSRNITYLPAGQSVLLQLPQ | not soluble
14 | AMGSVTVHSSEPEVRIPENNPVKLSCAYSGFSSPRVEWKFDQGDTTRLVCYNNKITASYEDRVTFLPTGITFKSVTREDTGTYTCMVSEEGGNSYGEVKVKLIVLVPPSKPTVNIPSSATIGNRAVLTCSEQDGSPPSEYTWFKDGIVMPTNPKSTRAFSNSSYVLNPTTGELVFDPLSASDTGEYSCEARNGYGTPMTSNAVRMEAVE | soluble
15 | AMSNNKIKRKDASPEQEAIESFTSLTKCDPKVSRKYLQRNHWNINYALNDYYDKEIGTFTDEVSTVAHPPVYPKELTQVFEHYINNNLFDIDSLVKFIEELGYNLEDLATLCLAHLLGYKKLEEPLKREDFLSTWFMQGCSTISDMQECIKTLDVKLHEDLQYFTQIYNYAFNLILDPNRKDIDTDEGIQYWKLFFQPEYPVRMEPDLLEAWFRFLRDEGKTTISKDTWRMLLLFFKRYPTIQKIISDYDETAAWPFIIDEFYECLQDQQ | soluble
16 | AMVSVSGIRKVQRAEGPATVLAIGTANPPNCVDQSTYADYYFRVTNSEHMTDLKKKFQRICERTQIKNRHMYLTEEILKENPNMCAYKAPSLDAREDMMIREVPRVGKEAATKAIKEWGQPMSKITHLIFCTTSGVALPGVDYELIVLLGLDPSVKRYMMYHQGCFAGGTVLRLAKDLAENNKDARVLIVCSENTSVTFRGPSETDMDSLVGQALFADGAAAIIIGSDPVPEVENPLFEIVSTDQQLVPNSHGAIGGLLREVGLTFYLNKSVPDIISQNINDALSKAFDPLGISDYNSIFWIAHPGGRAILDQVEEKVNLKPEKMKATRDVLSNYGNMSSACVFFIMDLMRKKSLEAGLKTTGEGLDWGVLFGFGPGLTIETVVLRSMAI | soluble
17 | AMYEKPPVEKLIEELRQLKEKAYKGGGDERIQFQHSKGKLTARERLALLFDDGKFNEIMTFATTRATEFGLDKQRFYGDGVVTGWGKVDGRTVFAYAQDFTVLGGSLGETHANKIVRAYELALKVGAPVVGINDSGGARIQEGALSLEGYGAVFKMNVMASGVIPQITIMAGPAAGGAVYSPALTDFIIMIKGDAYYMFVTGPEITKVVLGEEVSFQDLGGAVVHATKSGVVHFMVDSEQEAINLTKRLLSYLPSNNMEEPPYIDTGDPADRDATGVEQIVPNDAAKPYNMREIIYKIVDNGEFLEVHKHWAQNIIVGFARIAGNVVGIVANNPEEFGGSIDIDAADKAARFIRFCDAFNIPLISLVDTPGYVPGTDQEYKGIIRHGAKMLYAFAEATVPKITVIVRKSYGGAHIAMSIKSLGADLVYAWPTAEIAVTGPEGAVRILYRKEIQQASNPDDVLKQRIAEYRKLFANPYWAAEKGLVDDVIEPKDTRRVIVAGLEMLKTKREYRYPKKHGNIPL | soluble
18 | ANAFLEELRPGSLERECKEEQCSFEEAREIFKDAERTKLFWISYSDGDQCASSPCQNGGSCKDQLQSYICFCLPAFEGRNCETHKDDQLICVNENGGCEQYCSDHTGTKRSCRCHEGYSLLADGVSCTPTVEYPCGKIPILEKRNASKPQGR | soluble
19 | ANIIANTALTIGATKVDVKEITPELLASLNEIGGSEANVASGYHAIEFLLWGQDLNGTKAGAGARSYTDYLQGKACTNNHCDRRAQYLKAAAQLLVTDLEWMEKQWASGEKDNYRQQLLSESAENGLRKMLFGMGSLSLGELAGERMKVALEANSTEDEHDCFSDNTHNSHYYNEQGIYNIYTGSYTRADGSELKGPSLYQLVAEKDANAAKEILQQFEAARTQVGELVTAAEKNNQHFDQLIAADNAAGHAIINQAIMALVAQTGSIERAAGIIGIDNLNPDTADHEF | not soluble
20 | APAHADHQITKRTDAENMYNTIQFLSQAPRVAGSPEELKAVRYIEQQFKSYGYHVEVQPFQFEGYTAPSEVTLKIGTEKKEGEAFTYSPNSDVTAELVYVGLGTTADVAGKDLNGKIALIQRGNISFADKVRNAAKQGAKAVIIYNNTDGKLNGTLGGSDASFVAAVGITKQEGDALAANLRAGEKITATVKVAGAEVKTLTSHNVIATKKPDANKKNTNDIIIIGSHHDSVEKAPGANDDASGVAVTLELARVMSKLKTDTELRFITFGAEENGLIGSKKYAASLSEDEIKRTIGMFQLDMVGSKDAGDLIMYTIDGKKNRVTDLGAAASSRLSGVLPYGQEGRSDHESFHALGIPAALFIHAPVEPWYHTPNDTLDKISKEKLDNVADIVGSAVYQAARPGELVIEPIDYPRRNVELQN | soluble
21 | APLFIKNVNGIKVAILSYAYGFNGLESNLTEKEIANHLSNLDEKRMKVEIERAEKEADVTVIMPQMGVEYRLEPTDEQVKLYHKMIDWGADIIFGGHPHVVEPSEVVKKDGQQKLIIYSMGNFISNQRIETVDGVDNAAWTERSVLMDVTLEKKNCQTTIKTAQAHPTWVNRTPKGTISPEGYPLYTYQTYILEDFIKGRKYRNKLDEETKERIDTAYKEMNAHVNL | not soluble
22 | APSYRVKRADIATCTEAAVVNAANARGTVGDGVCRAVAKKWPSAFKGAATPVGTIKTVMCGSYPVIHAVAPNFSATTEAEGDRELAAVYRAVAAEVNRLSLSSVAIPLLSTGVFSGGRDRLQQSLNHLFTAMDATDADVTIYCRDKSWEKKIQEAIDMRTAVELLNDDVELTTDLVRVHPDSSLVGRKGYSTTDGSLYSYFEGTKFNQAAIDMAEILTLWPRLQEANERICLYALGETMDNIGSKCPVNDSDSSTPPRTVPCLCRYAMTAERIARLRSHQVKSMVVCSSFPLPKYHVDGVQKVKCEKVLLFDPTVPSVVSPRKYAASTTDHSDRSLRGFDLDWTTDSSSTASDTMSLPSLQSCDIDSIYEPMAPIVVTADVHPEPAGIADLAADVHPEPADHVDLENPIPPPRPKRAAYLASRAAERPVPAPRKPTPAPRTAFRNKLPLTFGDFDEHEVDALASGITFGDFDDVLRLGRAGA | not soluble
23 | AQAALKDGTYSVDYTVLQGDSDSVSMANDYFDKPATVTVNGGKSTVSLQVNHSKWITGLWVEGNAVSVTSKNTASDTRKVSFPVSTLSSPVNAKIKVDIDDDGLNYHHEYQIQLRFDEGAVKSSGAAV | not soluble
24 | AQAFVNSKIQPGKVVVFIKPTCPFCRKTQELLSQLPFKEGLLEFVDITATSDTNEIQDYLQQLTGARTVPRVFIGKECIGGCTDLESMHKRGELLTRLQQVGAVK | soluble
